Results on four molecules are retold here after article PMC9472616 (2022).

To fix the notation:
B1: BD-368 (antibody, V domains shown)
VH: EVQLLESGGGVVQPGGSLRLSCAASGFAFTTYAMNWVRQAPGRGLEWVSAISDGGGSAYYADSVKGRFTISRDNSKNTLYLQMNSLRAEDTAVYYCAKTRGRGLYDYVWGSKDYWGQGTLVTVSS
VL: not shown
B2: REGN10933 (antibody, V domains shown)
VH: QVQLVESGGGLVKPGGSLRLSCAASGFTFSDYYMSWIRQAPGKGLEWVSYITYSGSTIYYADSVKGRFTISRDNAKSSLYLQMNSLRAEDTAVYYCARDRGTTMVPFDYWGQGTLVTVSS
VL: DIQMTQSPSSLSASVGDRVTITCQASQDITNYLNWYQQKPGKAPKLLIYAASNLETGVPSRFSGSGSGTDFTFTISGLQPEDIATYYCQQYDNLPLTFGGGTKVEIK
B3: REGN10987 (antibody, V domains shown)
VH: QVQLVESGGGVVQPGRSLRLSCAASGFTFSNYAMYWVRQAPGKGLEWVAVISYDGSNKYYADSVKGRFTISRDNSKNTLYLQMNSLRTEDTAVYYCASGSDYGDYLLVYWGQGTLVTVSS
VL: QSALTQPASVSGSPGQSITISCTGTSSDVGGYNYVSWYQQHPGKAPKLMIYDVSKRPSGVSNRFSGSKSGNTASLTISGLQSEDEADYYCNSLTSISTWVFGGGTKLTVL
B4: CB6 (antibody, V domains shown)
VH: EVQLVESGGGLVQPGGSLRLSCAASGFTVSSNYMSWVRQAPGKGLEWVSVIYSGGSTFYADSVKGRFTISRDNSMNTLFLQMNSLRAEDTAVYYCARVLPMYGDYLDYWGQGTLVTVSS
VL: not shown

This assay addresses SARS-CoV-2 WT RBD (SARS-CoV-2, UniProt P0DTC2 319-541). The assay can be described thus: SPR.
The term Kd denotes the equilibrium constant for the complex coming apart. A higher Kd goes with lower affinity. As for B1, binding was put at a Kd of 3.47 nM. This counts as single-digit nanomolar. The value for B2 was 1.6 nM; that for B3 was 2.22 nM; that for B4 was 30 nM.
